Here are results for one molecule from US20210063414A1, “METHODS FOR PREVENTING AND/OR TREATING BONE LOSS CONDITIONS BY MODULATING IRISIN” (Dana-Farber Cancer Institute, Inc., priority 2018, published 2021).

The target in the assay is T1, MLO-Y4 cell surface proteins (Mus musculus, UniProt P59242).
T1 construct: endogenous in cells; host or cells: MLO-Y4
T1 sequence (P59242 1-1191): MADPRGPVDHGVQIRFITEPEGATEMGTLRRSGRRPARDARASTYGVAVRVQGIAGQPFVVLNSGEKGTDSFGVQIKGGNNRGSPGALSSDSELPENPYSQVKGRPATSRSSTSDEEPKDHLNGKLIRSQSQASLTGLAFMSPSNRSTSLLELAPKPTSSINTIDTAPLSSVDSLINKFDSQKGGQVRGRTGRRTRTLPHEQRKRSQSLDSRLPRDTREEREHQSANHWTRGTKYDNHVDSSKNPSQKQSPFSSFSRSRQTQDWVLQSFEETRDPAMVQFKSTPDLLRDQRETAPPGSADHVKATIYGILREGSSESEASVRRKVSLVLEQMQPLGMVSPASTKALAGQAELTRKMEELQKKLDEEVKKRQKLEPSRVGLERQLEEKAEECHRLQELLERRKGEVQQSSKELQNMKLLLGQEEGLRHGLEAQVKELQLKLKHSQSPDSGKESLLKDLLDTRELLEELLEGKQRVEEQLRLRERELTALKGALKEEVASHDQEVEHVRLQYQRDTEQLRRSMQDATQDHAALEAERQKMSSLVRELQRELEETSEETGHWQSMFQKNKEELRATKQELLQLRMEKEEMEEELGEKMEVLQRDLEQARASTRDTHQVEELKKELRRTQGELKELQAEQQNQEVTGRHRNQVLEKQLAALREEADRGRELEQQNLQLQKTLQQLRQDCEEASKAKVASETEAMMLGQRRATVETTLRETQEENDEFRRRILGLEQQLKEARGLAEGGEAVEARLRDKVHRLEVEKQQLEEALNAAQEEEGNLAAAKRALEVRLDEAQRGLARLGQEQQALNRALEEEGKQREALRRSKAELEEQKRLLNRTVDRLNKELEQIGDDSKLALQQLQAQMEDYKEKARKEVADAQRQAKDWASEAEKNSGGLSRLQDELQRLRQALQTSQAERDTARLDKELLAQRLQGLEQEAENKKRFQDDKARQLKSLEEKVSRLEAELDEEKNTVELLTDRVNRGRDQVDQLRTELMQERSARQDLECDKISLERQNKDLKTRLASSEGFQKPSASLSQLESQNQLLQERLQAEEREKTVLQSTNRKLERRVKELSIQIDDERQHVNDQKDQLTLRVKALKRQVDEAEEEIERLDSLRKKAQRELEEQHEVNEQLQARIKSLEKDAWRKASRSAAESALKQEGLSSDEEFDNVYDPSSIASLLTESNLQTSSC
Briefly: Crosslinking/co-immunoprecipitation/mass spectrometry (TMT quantitative proteomics) to identify irisin receptors. As to conditions: co-precipitated protein Cgn (CING_MOUSE). The class given is binding. Put shortly:
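Relative protein abundance came from 6-plex TMT MS3 quantitation on an Orbitrap Fusion Lumos, after in-gel trypsin digestion of Coomassie-stained SDS-PAGE lanes. Input was a Ni-NTA pulldown (250 mM imidazole elution) of lysates from murine MLO-Y4 cells. These cells were treated on ice with His-tagged irisin or adipsin (10 nM, 20 min) in serum-free medium, then crosslinked with 1.5 mM DTSSP for 30 min.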

B1: irisin: secreted cleaved form of FNDC5; recombinant human/mouse irisin with C-terminal his tag produced in HEK293 cells (protein)
chain: DSPSAPVNVTVRHLKANSAVVSWDVLEDEVVIGFAISQQKKDVRMLRFIQEVNTTTRSCALWDLEEDTEYIVHVQAISIQGQSPASEPVLFKTPREAEKMASKNKDEVTMKE
modifications: left off: small tags and cut ends
notes: secreted cleaved form of FNDC5; recombinant human/mouse irisin with C-terminal his tag produced in HEK293 cells
Turning to B1, the TMT signal-to-noise ratio is reported as 16.0255 and the “irisin/adipsin TMT signal-to-noise ratio” value is recorded as 0.080.
